Assay [1] has as its target Recombinant gI protein (~46 kDa) from HSV-2 (BMP1052b or BMP1292) (HSV-2). Kind of assay: indirect ELISA on coated HSV-2 gI, one mouse. A general note: An ELISA detects its analyte on a solid surface through an enzyme-linked reagent.
In assay [2] the target is Recombinant gE/gI heterodimer protein (BMP1299) from HSV-1 (HSV-1) (UniProt P06487). Kind of assay: indirect ELISA on coated HSV-1 gE/gI.
Assay [3] has as its target Recombinant gE protein (~51 kDa) from HSV-2 (BMP1049 or BMP1291) (HSV-2). Kind of assay: indirect ELISA on coated HSV-2 gE.
For assay [4], the target named is Recombinant gI protein (~46 kDa) from HSV-2 (BMP1052b or BMP1292) (HSV-2). Kind of assay: indirect ELISA on coated HSV-2 gI.

Chain of UniProt P06487 (P06487 whole entry, one chain of several): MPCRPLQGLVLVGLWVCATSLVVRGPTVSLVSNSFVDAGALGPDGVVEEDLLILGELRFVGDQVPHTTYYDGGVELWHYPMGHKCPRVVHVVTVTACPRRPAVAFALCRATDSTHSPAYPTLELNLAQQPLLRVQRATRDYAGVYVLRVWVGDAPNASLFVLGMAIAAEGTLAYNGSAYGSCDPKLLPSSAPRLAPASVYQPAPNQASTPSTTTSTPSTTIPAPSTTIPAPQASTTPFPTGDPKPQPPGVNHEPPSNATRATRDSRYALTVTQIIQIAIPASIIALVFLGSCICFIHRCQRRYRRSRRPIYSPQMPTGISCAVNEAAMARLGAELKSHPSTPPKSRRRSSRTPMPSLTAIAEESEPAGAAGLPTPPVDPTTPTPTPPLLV

Regarding “serum of CB6F1 mice injected with NaCl 150 mM (Example 1, group 6, negative control) (antibody)”, in assay [1], the IgG titer worked out at 135 EU/mL.

Take “serum of CB6F1 mice injected with NaCl 150 mM (Example 2, group 7, negative control) (antibody)”: in assay [2], the IgG titer came out at 11 EU/mL.

For the substance “serum of CB6F1 mice injected with NaCl 150 mM (Example 3, group 7, negative control) (antibody)”, the IgG titer in assay [3] and in assay [4] was 17 EU/mL throughout.
